The target in the experiment is human corticotropin-releasing factor 2α (CRF2 α receptor) (human), Q13324. The experiment is described as follows: cell-based or functional assay.

This note sets out measurements from patent US12679878B2, “CRF2 receptor agonists and their use in therapy” (SANOFI, priority 2020, dated 2026).

Starred links: 1 amine or outer side, 2 acyl side, 3 side chain; linkers in the order of their positions; H or OH if unused. Non-standard residues stand in square brackets, D forms with d. Groups on a side chain read outwards from the residue. No end group written: not given here. *: point of attachment. C20 diacid = O=C(O)CCCCCCCCCCCCCCCCCCC(=O)*; C18 diacid = O=C(O)CCCCCCCCCCCCCCCCC(=O)*; γGlu = O=C(O)[C@H](CCC(=O)[*:2])N[*:1]; Palmitoyl = CCCCCCCCCCCCCCCC(=O)*; AEEA = NCCOCCOCC(=O)O; Aib = CC(C)(N)C(=O)O

Chain of human corticotropin-releasing factor 2α (CRF2 α receptor) (human), Q13324 (Q13324 20-411): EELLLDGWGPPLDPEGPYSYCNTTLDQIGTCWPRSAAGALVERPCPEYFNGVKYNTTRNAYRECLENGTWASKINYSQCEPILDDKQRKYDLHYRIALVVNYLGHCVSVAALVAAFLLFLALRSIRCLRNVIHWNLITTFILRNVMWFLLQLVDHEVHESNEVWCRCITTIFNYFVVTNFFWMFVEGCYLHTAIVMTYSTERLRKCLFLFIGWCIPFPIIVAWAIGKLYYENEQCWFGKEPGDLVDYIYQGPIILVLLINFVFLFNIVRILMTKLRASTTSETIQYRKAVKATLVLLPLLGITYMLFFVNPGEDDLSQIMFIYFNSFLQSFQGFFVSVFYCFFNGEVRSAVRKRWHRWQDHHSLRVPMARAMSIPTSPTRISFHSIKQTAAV

B1: SEQ ID NO: 77 (peptide)
peptide: IVLSLDVPIKLK([AEEA-AEEA-γGlu-C18 diacid])QILLKQERQKKQRQKAETNKQILAQV-NH2
modifications: N-terminus assumed
SMILES: CC[C@H](C)[C@H](N)C(=O)N[C@H](C(=O)N[C@@H](CC(C)C)C(=O)N[C@@H](CO)C(=O)N[C@@H](CC(C)C)C(=O)N[C@@H](CC(=O)O)C(=O)N[C@H](C(=O)N1CCC[C@H]1C(=O)N[C@H](C(=O)N[C@@H](CCCCN)C(=O)N[C@@H](CC(C)C)C(=O)N[C@@H](CCCCNC(=O)COCCOCCNC(=O)COCCOCCNC(=O)CC[C@H](NC(=O)CCCCCCCCCCCCCCCCC(=O)O)C(=O)O)C(=O)N[C@@H](CCC(N)=O)C(=O)N[C@H](C(=O)N[C@@H](CC(C)C)C(=O)N[C@@H](CC(C)C)C(=O)N[C@@H](CCCCN)C(=O)N[C@@H](CCC(N)=O)C(=O)N[C@@H](CCC(=O)O)C(=O)N[C@@H](CCCNC(=N)N)C(=O)N[C@@H](CCC(N)=O)C(=O)N[C@@H](CCCCN)C(=O)N[C@@H](CCCCN)C(=O)N[C@@H](CCC(N)=O)C(=O)N[C@@H](CCCNC(=N)N)C(=O)N[C@@H](CCC(N)=O)C(=O)N[C@@H](CCCCN)C(=O)N[C@@H](C)C(=O)N[C@@H](CCC(=O)O)C(=O)N[C@H](C(=O)N[C@@H](CC(N)=O)C(=O)N[C@@H](CCCCN)C(=O)N[C@@H](CCC(N)=O)C(=O)N[C@H](C(=O)N[C@@H](CC(C)C)C(=O)N[C@@H](C)C(=O)N[C@@H](CCC(N)=O)C(=O)N[C@H](C(N)=O)C(C)C)[C@@H](C)CC)[C@@H](C)O)[C@@H](C)CC)[C@@H](C)CC)C(C)C)C(C)C
As to B1, the EC50 [nM], 0% HSA stood at 0.33 nM.

B2: SEQ ID NO: 76 (peptide)
peptide: IVLSLDVPIGLK([AEEA-AEEA-γGlu-C18 diacid])QILLEQERQKKQRQQAETN[Aib]QILAQV-NH2
modifications: N-terminus assumed
SMILES: CC[C@H](C)[C@H](N)C(=O)N[C@H](C(=O)N[C@@H](CC(C)C)C(=O)N[C@@H](CO)C(=O)N[C@@H](CC(C)C)C(=O)N[C@@H](CC(=O)O)C(=O)N[C@H](C(=O)N1CCC[C@H]1C(=O)N[C@H](C(=O)NCC(=O)N[C@@H](CC(C)C)C(=O)N[C@@H](CCCCNC(=O)COCCOCCNC(=O)COCCOCCNC(=O)CC[C@H](NC(=O)CCCCCCCCCCCCCCCCC(=O)O)C(=O)O)C(=O)N[C@@H](CCC(N)=O)C(=O)N[C@H](C(=O)N[C@@H](CC(C)C)C(=O)N[C@@H](CC(C)C)C(=O)N[C@@H](CCC(=O)O)C(=O)N[C@@H](CCC(N)=O)C(=O)N[C@@H](CCC(=O)O)C(=O)N[C@@H](CCCNC(=N)N)C(=O)N[C@@H](CCC(N)=O)C(=O)N[C@@H](CCCCN)C(=O)N[C@@H](CCCCN)C(=O)N[C@@H](CCC(N)=O)C(=O)N[C@@H](CCCNC(=N)N)C(=O)N[C@@H](CCC(N)=O)C(=O)N[C@@H](CCC(N)=O)C(=O)N[C@@H](C)C(=O)N[C@@H](CCC(=O)O)C(=O)N[C@H](C(=O)N[C@@H](CC(N)=O)C(=O)NC(C)(C)C(=O)N[C@@H](CCC(N)=O)C(=O)N[C@H](C(=O)N[C@@H](CC(C)C)C(=O)N[C@@H](C)C(=O)N[C@@H](CCC(N)=O)C(=O)N[C@H](C(N)=O)C(C)C)[C@@H](C)CC)[C@@H](C)O)[C@@H](C)CC)[C@@H](C)CC)C(C)C)C(C)C
In the case of B2, the EC50 [nM], 0% HSA worked out at 13.4 nM.

B3: SEQ ID NO: 80 (peptide)
peptide: IVLSLDVPTKLK([AEEA-AEEA-γGlu-C20 diacid])QILLEQERQKKQREQAETN[Aib]QILAQV-NH2
modifications: N-terminus assumed
SMILES: CC[C@H](C)[C@H](N)C(=O)N[C@H](C(=O)N[C@@H](CC(C)C)C(=O)N[C@@H](CO)C(=O)N[C@@H](CC(C)C)C(=O)N[C@@H](CC(=O)O)C(=O)N[C@H](C(=O)N1CCC[C@H]1C(=O)N[C@H](C(=O)N[C@@H](CCCCN)C(=O)N[C@@H](CC(C)C)C(=O)N[C@@H](CCCCNC(=O)COCCOCCNC(=O)COCCOCCNC(=O)CC[C@H](NC(=O)CCCCCCCCCCCCCCCCCCC(=O)O)C(=O)O)C(=O)N[C@@H](CCC(N)=O)C(=O)N[C@H](C(=O)N[C@@H](CC(C)C)C(=O)N[C@@H](CC(C)C)C(=O)N[C@@H](CCC(=O)O)C(=O)N[C@@H](CCC(N)=O)C(=O)N[C@@H](CCC(=O)O)C(=O)N[C@@H](CCCNC(=N)N)C(=O)N[C@@H](CCC(N)=O)C(=O)N[C@@H](CCCCN)C(=O)N[C@@H](CCCCN)C(=O)N[C@@H](CCC(N)=O)C(=O)N[C@@H](CCCNC(=N)N)C(=O)N[C@@H](CCC(=O)O)C(=O)N[C@@H](CCC(N)=O)C(=O)N[C@@H](C)C(=O)N[C@@H](CCC(=O)O)C(=O)N[C@H](C(=O)N[C@@H](CC(N)=O)C(=O)NC(C)(C)C(=O)N[C@@H](CCC(N)=O)C(=O)N[C@H](C(=O)N[C@@H](CC(C)C)C(=O)N[C@@H](C)C(=O)N[C@@H](CCC(N)=O)C(=O)N[C@H](C(N)=O)C(C)C)[C@@H](C)CC)[C@@H](C)O)[C@@H](C)CC)[C@@H](C)O)C(C)C)C(C)C
Take B3: the EC50 [nM], 0% HSA amounted to 0.9 nM and the EC50 [nM], 0.1% HSA was 92.5 nM.

B4: SEQ ID NO: 79 (peptide)
peptide: IVLSLDVPIKLK([AEEA-AEEA-γGlu-C18 diacid])QILLEQEKQK[Aib]QREQAETNKQILAQV-NH2
modifications: N-terminus assumed
SMILES: CC[C@H](C)[C@H](N)C(=O)N[C@H](C(=O)N[C@@H](CC(C)C)C(=O)N[C@@H](CO)C(=O)N[C@@H](CC(C)C)C(=O)N[C@@H](CC(=O)O)C(=O)N[C@H](C(=O)N1CCC[C@H]1C(=O)N[C@H](C(=O)N[C@@H](CCCCN)C(=O)N[C@@H](CC(C)C)C(=O)N[C@@H](CCCCNC(=O)COCCOCCNC(=O)COCCOCCNC(=O)CC[C@H](NC(=O)CCCCCCCCCCCCCCCCC(=O)O)C(=O)O)C(=O)N[C@@H](CCC(N)=O)C(=O)N[C@H](C(=O)N[C@@H](CC(C)C)C(=O)N[C@@H](CC(C)C)C(=O)N[C@@H](CCC(=O)O)C(=O)N[C@@H](CCC(N)=O)C(=O)N[C@@H](CCC(=O)O)C(=O)N[C@@H](CCCCN)C(=O)N[C@@H](CCC(N)=O)C(=O)N[C@@H](CCCCN)C(=O)NC(C)(C)C(=O)N[C@@H](CCC(N)=O)C(=O)N[C@@H](CCCNC(=N)N)C(=O)N[C@@H](CCC(=O)O)C(=O)N[C@@H](CCC(N)=O)C(=O)N[C@@H](C)C(=O)N[C@@H](CCC(=O)O)C(=O)N[C@H](C(=O)N[C@@H](CC(N)=O)C(=O)N[C@@H](CCCCN)C(=O)N[C@@H](CCC(N)=O)C(=O)N[C@H](C(=O)N[C@@H](CC(C)C)C(=O)N[C@@H](C)C(=O)N[C@@H](CCC(N)=O)C(=O)N[C@H](C(N)=O)C(C)C)[C@@H](C)CC)[C@@H](C)O)[C@@H](C)CC)[C@@H](C)CC)C(C)C)C(C)C
Turning to B4, the EC50 [nM], 0% HSA came out at 0.46 nM.

B5: SEQ ID NO: 5 (peptide)
peptide: IVLSLDVPIGLK([γGlu-Palmitoyl])QKLLKQQRQRKERQQAETNARILARV-NH2
modifications: N-terminus assumed
SMILES: CCCCCCCCCCCCCCCC(=O)N[C@@H](CCC(=O)NCCCC[C@H](NC(=O)[C@H](CC(C)C)NC(=O)CNC(=O)[C@@H](NC(=O)[C@@H]1CCCN1C(=O)[C@@H](NC(=O)[C@H](CC(=O)O)NC(=O)[C@H](CC(C)C)NC(=O)[C@H](CO)NC(=O)[C@H](CC(C)C)NC(=O)[C@@H](NC(=O)[C@@H](N)[C@@H](C)CC)C(C)C)C(C)C)[C@@H](C)CC)C(=O)N[C@@H](CCC(N)=O)C(=O)N[C@@H](CCCCN)C(=O)N[C@@H](CC(C)C)C(=O)N[C@@H](CC(C)C)C(=O)N[C@@H](CCCCN)C(=O)N[C@@H](CCC(N)=O)C(=O)N[C@@H](CCC(N)=O)C(=O)N[C@@H](CCCNC(=N)N)C(=O)N[C@@H](CCC(N)=O)C(=O)N[C@@H](CCCNC(=N)N)C(=O)N[C@@H](CCCCN)C(=O)N[C@@H](CCC(=O)O)C(=O)N[C@@H](CCCNC(=N)N)C(=O)N[C@@H](CCC(N)=O)C(=O)N[C@@H](CCC(N)=O)C(=O)N[C@@H](C)C(=O)N[C@@H](CCC(=O)O)C(=O)N[C@H](C(=O)N[C@@H](CC(N)=O)C(=O)N[C@@H](C)C(=O)N[C@@H](CCCNC(=N)N)C(=O)N[C@H](C(=O)N[C@@H](CC(C)C)C(=O)N[C@@H](C)C(=O)N[C@@H](CCCNC(=N)N)C(=O)N[C@H](C(N)=O)C(C)C)[C@@H](C)CC)[C@@H](C)O)C(=O)O
As to B5, the EC50 [nM], 0% HSA worked out at 0.04 nM.

B6: SEQ ID NO: 78 (peptide)
peptide: IVLSLDVPTKLK([AEEA-AEEA-γGlu-C18 diacid])QILLEQERQKKQREQAETN[Aib]QILAQV-NH2
modifications: N-terminus assumed
SMILES: CC[C@H](C)[C@H](N)C(=O)N[C@H](C(=O)N[C@@H](CC(C)C)C(=O)N[C@@H](CO)C(=O)N[C@@H](CC(C)C)C(=O)N[C@@H](CC(=O)O)C(=O)N[C@H](C(=O)N1CCC[C@H]1C(=O)N[C@H](C(=O)N[C@@H](CCCCN)C(=O)N[C@@H](CC(C)C)C(=O)N[C@@H](CCCCNC(=O)COCCOCCNC(=O)COCCOCCNC(=O)CC[C@H](NC(=O)CCCCCCCCCCCCCCCCC(=O)O)C(=O)O)C(=O)N[C@@H](CCC(N)=O)C(=O)N[C@H](C(=O)N[C@@H](CC(C)C)C(=O)N[C@@H](CC(C)C)C(=O)N[C@@H](CCC(=O)O)C(=O)N[C@@H](CCC(N)=O)C(=O)N[C@@H](CCC(=O)O)C(=O)N[C@@H](CCCNC(=N)N)C(=O)N[C@@H](CCC(N)=O)C(=O)N[C@@H](CCCCN)C(=O)N[C@@H](CCCCN)C(=O)N[C@@H](CCC(N)=O)C(=O)N[C@@H](CCCNC(=N)N)C(=O)N[C@@H](CCC(=O)O)C(=O)N[C@@H](CCC(N)=O)C(=O)N[C@@H](C)C(=O)N[C@@H](CCC(=O)O)C(=O)N[C@H](C(=O)N[C@@H](CC(N)=O)C(=O)NC(C)(C)C(=O)N[C@@H](CCC(N)=O)C(=O)N[C@H](C(=O)N[C@@H](CC(C)C)C(=O)N[C@@H](C)C(=O)N[C@@H](CCC(N)=O)C(=O)N[C@H](C(N)=O)C(C)C)[C@@H](C)CC)[C@@H](C)O)[C@@H](C)CC)[C@@H](C)O)C(C)C)C(C)C
Take B6: the EC50 [nM], 0% HSA was found to be 10.6 nM.
